From patent US20220064322A1 (JACOBIO PHARMACEUTICALS, published 2022)
Read-outs that look alike come from different tables or passages of the source.

T1: human CD73 ecto-domain recombinant protein (huCD73) (human, UniProt P21589 27-547)
T1 sequence: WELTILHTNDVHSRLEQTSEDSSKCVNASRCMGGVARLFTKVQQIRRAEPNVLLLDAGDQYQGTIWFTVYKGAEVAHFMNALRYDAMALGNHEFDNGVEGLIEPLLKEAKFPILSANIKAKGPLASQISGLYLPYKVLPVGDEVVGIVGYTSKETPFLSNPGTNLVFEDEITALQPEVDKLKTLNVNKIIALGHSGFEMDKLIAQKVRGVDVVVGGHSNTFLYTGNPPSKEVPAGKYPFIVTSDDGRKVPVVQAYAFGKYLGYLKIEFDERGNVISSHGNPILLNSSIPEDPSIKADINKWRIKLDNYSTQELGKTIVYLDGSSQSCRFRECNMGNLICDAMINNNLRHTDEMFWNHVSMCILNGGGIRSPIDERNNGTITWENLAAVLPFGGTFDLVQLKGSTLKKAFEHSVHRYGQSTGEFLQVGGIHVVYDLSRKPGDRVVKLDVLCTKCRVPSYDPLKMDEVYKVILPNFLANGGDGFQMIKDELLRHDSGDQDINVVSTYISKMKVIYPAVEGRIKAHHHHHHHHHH

T2: cynomolgus CD73 on the cell surface (293T/17-cynoCD73 cells) (cynomolgus (Macaca fascicularis), UniProt P21589 27-547 (human entry))
T2 chain: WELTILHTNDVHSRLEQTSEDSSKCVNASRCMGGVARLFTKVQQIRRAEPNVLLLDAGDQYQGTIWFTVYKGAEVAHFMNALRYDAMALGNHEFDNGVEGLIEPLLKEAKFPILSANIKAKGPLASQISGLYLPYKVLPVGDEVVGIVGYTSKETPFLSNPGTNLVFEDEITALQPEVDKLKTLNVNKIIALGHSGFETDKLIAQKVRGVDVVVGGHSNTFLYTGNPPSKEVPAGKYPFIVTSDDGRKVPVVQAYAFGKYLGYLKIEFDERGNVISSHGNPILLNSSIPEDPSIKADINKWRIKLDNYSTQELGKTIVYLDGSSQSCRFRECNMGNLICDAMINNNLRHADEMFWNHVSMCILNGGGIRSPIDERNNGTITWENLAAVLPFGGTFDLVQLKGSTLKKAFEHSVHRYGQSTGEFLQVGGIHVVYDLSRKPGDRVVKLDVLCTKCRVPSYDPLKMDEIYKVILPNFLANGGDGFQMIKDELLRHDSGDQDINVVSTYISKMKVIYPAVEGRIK

B1: 94A12G11F2 (antibody, mouse IgG1, kappa)
heavy: QVQLQQSGAELAKPGASVKLSCKASGYTFTSYWMHWVKQRPGQGLEWIGYINPSSGYTKSNQKFKDKATLTADKSSSTAYMQLSSLTYEDSAVYYCGRWLLSAWFAYWGQGTLVTVSAAKTTPPSVYPLAPGSAAQTNSMVTLGCLVKGYFPEPVTVTWNSGSLSSGVHTFPAVLQSDLYTLSSSVTVPSSTWPSETVTCNVAHPASSTKVDKKIVPRDCGCKPCICTVPEVSSVFIFPPKPKDVLTITLTPKVTCVVVDISKDDPEVQFSWFVDDVEVHTAQTQPREEQFNSTFRSVSELPIMHQDWLNGKEFKCRVNSAAFPAPIEKTISKTKGRPKAPQVYTIPPPKEQMAKDKVSLTCMITDFFPEDITVEWQWNGQPAENYKNTQPIMDTDGSYFVYSKLNVQKSNWEAGNTFTCSVLHEGLHNHHTEKSLSHSPGK
light: DIRMTQSPSSMYASLGERVTITCKASQDINTYLSWFQQKPGKSPKSLIYRSNILVDGVPSRFSGSGSGQDYSLTISSLEYEDMGIYYCLQYDDFPYTFGGGTKLEIKRADAAPTVSIFPPSSEQLTSGGASVVCFLNNFYPKDINVKWKIDGSERQNGVLNSWTDQDSKDSTYSMSSTLTLTKDEYERHNSYTCEATHKTSTSPIVKSFNRNEC
notes: Hybridoma antibody, mouse IgG1 / mouse kappa full chains
B2: JB24H2L1 (antibody, human IgG1, kappa, V domains shown)
VH: QVQLVQSGAEVKKPGASVKMSCKASGYTFTDYNMHWVRQSPGKSLEWIGYIKPHNAGTTYNPKFEGRATLTVDTSASTAYMELSSLRSEDTAVYYCVRSDFLYWYFDVWGQGTTVTVSS
VL: DIQMTQSPSSLSASVGDRVTITCTASSSVSSSYLHWYQQKPGKAPKLLIYSTSNLASGVPSRFSGSGSGTDFTLTISSLQPEDFATYYCHQYHRSPLTFGAGTKLEIKR
notes: Humanized antibody of JB24Chi, human IgG1 / kappa
B3: 191C3A8B9 (antibody, mouse IgG1, kappa, V domains shown)
VH: QVQLKESGPGLVAPSQSLSITCTVSGFSLTNYGVHWVRQPPGKGLEWLGVIWAGGSTNYNSALMSRLSISKDNSKSQLFLKMNSLQADDTAMYYCARERGSSWGTMDYWGQGTSVTVSS
VL: QIVLTQSPAIMSASPGEKVTMTCSASSRVSYMHWYQQKSGTSPKRWIYDTSQLASGVPARFSGSGSGTSYSLTISSMEAEDAATYYCQQWSSNPYTFGGGTKLEMRR
notes: as for B1
B4: S1B5 (antibody, human IgG1, kappa, V domains shown)
VH: EVQLKESGAELVKPGASVKISCKATGYTFTGYWIEWVKQRPGRGLEWIGEILPGSDITNYNEKFKGKATITADTSSNTAYMQLSSLTTEDSAIYYCARRGYDETGYAMDYWGQGTSVTVSS
VL: DIVMTQSPASLAVSLGQRATISCKASQSVDYDGDSYMNWYQQKPGQPPKLLIHAASNLESGIPARFSGSGSGTDFTLNIHPVEEEDAAVYFCQQSKEVPWTFGEGTKLEIKR
notes: Phage antibody, chimeric human IgG1 / human kappa full chains
B5: JB24Chi (antibody, human IgG1, kappa, V domains shown)
VH: QVQLQQSGLELVKPGASVKMSCKASGYTFTDYNMHWVKQSHGKSLEWIGYIKPHNGGTTYNPKFEGKATLTVNKSSSTAYMELRSLTSEDSAVYYCVRCDFLYWYFDVWGTGTTVTVSS
VL: DIVMTQSPAIMSASLGERVTMTCTASSSVSSSYLHWYQQKPGSSPKLWIYSTSNLASGVPGRFSGSGSGTSYSLTISSMEAEDAATYYCHQYHRSPLTFGAGTKLEMKR
notes: as for B4

Legend:
[1] = biological target: T1, human CD73 ecto-domain recombinant …; assay: cell-based or functional assay
[2] = biological target: T2, cynomolgus CD73 on the cell surface …; assay: cell-based or functional assay
[3] = biological target: T1, human CD73 ecto-domain recombinant …; assay: indirect ELISA, coated soluble huCD73
Experimental: (§1) The indirect ELISA method was applied to evaluate the binding ability of each positive clone to soluble huCD73 protein. Soluble huCD73 was coated, and gradient diluted samples were incubated, then HPR-labeled secondary antibody was added, finally TMB was added to develop the color, and OD450 was read after termination.
(§2) 1 ug/ml of recombinant CD73 protein was coated on ELISA plates (Coning), incubate overnight at 4° C. The next day, wash 5 times in PBS and blocked with 200 ul/well 2% skimmed milk, a certain dose range of CD73 antibodies were incubated for 1 h at room temperature. Wash 5 times with PBST washing buffer (PBS, 0.05% Tween 20), add HRP-conjugated goat anti-mouse IgG (H+L) (Promega) and incubate at room temperature for 1 h to detect bound anti-CD73 antibodies; wash the plate 5 times again and add TMB (Life Technologies) for color development for 5 to 10 min; finally the reaction was stopped by adding 1N HCl, and the OD value was measured at 450 nm. GraphPad Prism software was used to generate data graphs and statistical affinity data.

[4] = biological target: T1, human CD73 ecto-domain recombinant …; assay: indirect ELISA, coated soluble huCD73, curve fit
Experimental: as §1, §2

[5] = biological target: T1, human CD73 ecto-domain recombinant …; assay: indirect ELISA, coated soluble huCD73, HRP-labelled secondary antibody, OD450
Experimental: as §1, §2

[6] = biological target: T2, cynomolgus CD73 on the cell surface …; assay: cell-based or functional assay
[7] = biological target: T2, cynomolgus CD73 on the cell surface …; assay: flow cytometry on 293T/17-Cyno CD73 cells
Experimental: (§3) 2×10⁶ cells resuspended in PBS buffer were distributed into 96-well plates and incubated with gradient diluted humanized antibodies for 1 h at refrigerator 4° C. or on ice, then the cells was centrifuged for 3 min 1500 rpm at 4° C. and washed three times by PBS, and diluted APC-labeled goat anti-human polyclonal antibody (Biolegend) were incubated for 30 min at refrigerator 4° C. Finally, the cells were washed three times with PBS as described above and analyzed on MACSQuant flow cytometer. GraphPad Prism software was used to generate data graphs and statistical affinity data.
(§4) The samples to be tested were incubated for 1 h at 4° C. after gradient dilution. After washing, 100 μL of APC-labeled secondary antibody was added to each well and incubated for 30 min. After washing, detecting on machine and the fluorescence value was read. GraphPad Prism software was used to generate data graphs and statistical affinity data.

[8] = biological target: T1, human CD73 ecto-domain recombinant …; assay: indirect ELISA, coated huCD73 recombinant protein
Experimental: (§5) Incubated with gradient diluted 100 μL/well of antibodies for 1 h at room temperature. After the plates were washed 3 times with 200 ul/well of PBST, 100 ul of diluted HRP-labeled secondary antibody at a ratio of 1:5000 was added to each well, and the plates were incubated for 1 hour at room temperature. The plates were washed 3 times with 200 ul/well of PBST, 100 ul of TMB was added to each well and reacted for 5 minutes at room temperature in the dark. […] read the OD value. The affinity of humanized antibodies and parent antibodies were similar to the antigen (table 9).

[9] = biological target: T2, cynomolgus CD73 on the cell surface …; assay: flow cytometry on 293T/17-Cyno CD73 cells, curve fit
Experimental: as §3, §4

[10] = biological target: T1, human CD73 ecto-domain recombinant …; assay: indirect ELISA, coated huCD73 recombinant protein, curve fit
Experimental: as §5

[11] = biological target: T2, cynomolgus CD73 on the cell surface …; assay: flow cytometry on 293T/17 cells expressing cynoCD73, APC-labelled goat anti-human antibody, MFI
Experimental: as §3, §4

[12] = biological target: T1, human CD73 ecto-domain recombinant …; assay: indirect ELISA, plate coated with 1 ug/ml huCD73 recombinant protein, HRP-labelled secondary antibody, RFU
Experimental: as §5

Row | Binder | Bottom (lower plateau of the fitted curve), blockade of soluble huCD73 enzyme activity (AMP hydrolysis, luciferase/CellTiter-Glo) [1] | IC50, blockade of soluble huCD73 enzyme activity (AMP hydrolysis, luciferase/CellTiter-Glo) [1] | Top (upper plateau of the fitted curve), blockade of soluble huCD73 enzyme activity (AMP hydrolysis, luciferase/CellTiter-Glo) [1] | IC50, blockade of 5'exonuclease activity on 293T/17-Cyno CD73 cells [2] | EC50 [3] | Bottom [4] | Top [4] | EC50 (read off the curve) [5] | IC50, blockade of 5'exonuclease activity on 293T/17-Cyno CD73 cells [6] | EC50 [7] | EC50 [8] | Bottom [9] | Top [9] | Bottom [10] | Top [10] | EC50 (read off the curve) [11] | EC50 (read off the curve) [12]
1 | B1 | 6.21 | 1.5 nM | 87.8 | 0.006 nM | 0.242 nM | 0.0566 OD450 | 2.94 OD450 | ~0.2 nM |  |  |  |  |  |  |  |  | 
2 | B2 |  |  |  |  |  |  |  |  | 0.079 nM | 1.89 nM | 0.0248 nM | 1.4 fluorescence | 36.5 fluorescence | 191 OD value | 6290 OD value | ~2 nM | ~0.2 mg/L
3 | B3 | 5.55 | 2.41 nM | 93.7 | 0.001 nM | 0.279 nM | 0.0498 OD450 | 2.75 OD450 | ~0.04 mg/L |  |  |  |  |  |  |  |  | 
4 | B4 | 16.2 | 3.26 nM | 99.5 | 0.085 nM | 0.085 nM | 0.007 OD450 | 2.93 OD450 | ~0.08 nM |  |  |  |  |  |  |  |  | 
5 | B5 | 14.7 | 0.401 nM | 102 | 0.084 nM | 0.039 nM | 0.136 OD450 | 3.09 OD450 | ~0.04 nM | 0.005 nM | 6.38 nM | 0.0273 nM | 0.709 fluorescence | 68.5 fluorescence | 128 OD value | 6600 OD value |  | ~0.1 mg/L
